Laboratory results published in patent US20260234610, “NOVEL CAS12A PROTEIN, VARIANT OF NOVEL CAS12A PROTEIN, AND USE THEREOF FOR EUKARYOTIC GENOME EDITING” (NSAGE CORP., published 2026).

T1: ID233 Cas12a
T1 chain: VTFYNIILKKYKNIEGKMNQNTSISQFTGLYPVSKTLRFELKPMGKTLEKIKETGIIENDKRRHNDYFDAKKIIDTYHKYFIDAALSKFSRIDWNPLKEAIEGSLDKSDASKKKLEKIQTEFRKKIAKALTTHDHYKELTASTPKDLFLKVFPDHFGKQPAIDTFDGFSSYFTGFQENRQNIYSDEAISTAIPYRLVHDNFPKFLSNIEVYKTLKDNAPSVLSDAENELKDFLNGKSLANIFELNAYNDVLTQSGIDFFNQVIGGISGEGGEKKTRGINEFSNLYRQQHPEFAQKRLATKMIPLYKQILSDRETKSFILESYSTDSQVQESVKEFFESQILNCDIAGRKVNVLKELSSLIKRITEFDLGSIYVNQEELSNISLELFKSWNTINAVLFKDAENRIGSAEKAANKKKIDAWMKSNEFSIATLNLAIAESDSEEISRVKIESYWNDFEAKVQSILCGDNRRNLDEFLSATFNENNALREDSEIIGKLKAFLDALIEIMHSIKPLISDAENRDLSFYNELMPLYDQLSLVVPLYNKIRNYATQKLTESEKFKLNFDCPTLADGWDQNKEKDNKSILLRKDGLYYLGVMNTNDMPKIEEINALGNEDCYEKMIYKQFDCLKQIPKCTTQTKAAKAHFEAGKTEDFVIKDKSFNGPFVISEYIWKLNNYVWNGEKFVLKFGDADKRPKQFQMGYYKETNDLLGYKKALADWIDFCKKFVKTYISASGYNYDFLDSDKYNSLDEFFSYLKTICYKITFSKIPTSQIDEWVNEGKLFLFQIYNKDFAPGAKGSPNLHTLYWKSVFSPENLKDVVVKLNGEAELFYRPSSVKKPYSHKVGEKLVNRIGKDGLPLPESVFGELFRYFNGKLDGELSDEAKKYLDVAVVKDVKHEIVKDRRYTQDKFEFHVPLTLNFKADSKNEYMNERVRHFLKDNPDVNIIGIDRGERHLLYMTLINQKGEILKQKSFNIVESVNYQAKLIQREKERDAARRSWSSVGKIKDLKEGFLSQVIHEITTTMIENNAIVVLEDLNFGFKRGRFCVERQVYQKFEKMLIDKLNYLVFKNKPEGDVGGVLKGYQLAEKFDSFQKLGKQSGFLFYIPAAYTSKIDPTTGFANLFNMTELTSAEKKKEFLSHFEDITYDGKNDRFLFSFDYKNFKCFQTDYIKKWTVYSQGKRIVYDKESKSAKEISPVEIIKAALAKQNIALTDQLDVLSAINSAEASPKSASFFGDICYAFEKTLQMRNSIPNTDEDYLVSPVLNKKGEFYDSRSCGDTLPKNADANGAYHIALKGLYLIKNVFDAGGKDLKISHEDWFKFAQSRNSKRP

T2: ID236 Cas12a
T2 chain: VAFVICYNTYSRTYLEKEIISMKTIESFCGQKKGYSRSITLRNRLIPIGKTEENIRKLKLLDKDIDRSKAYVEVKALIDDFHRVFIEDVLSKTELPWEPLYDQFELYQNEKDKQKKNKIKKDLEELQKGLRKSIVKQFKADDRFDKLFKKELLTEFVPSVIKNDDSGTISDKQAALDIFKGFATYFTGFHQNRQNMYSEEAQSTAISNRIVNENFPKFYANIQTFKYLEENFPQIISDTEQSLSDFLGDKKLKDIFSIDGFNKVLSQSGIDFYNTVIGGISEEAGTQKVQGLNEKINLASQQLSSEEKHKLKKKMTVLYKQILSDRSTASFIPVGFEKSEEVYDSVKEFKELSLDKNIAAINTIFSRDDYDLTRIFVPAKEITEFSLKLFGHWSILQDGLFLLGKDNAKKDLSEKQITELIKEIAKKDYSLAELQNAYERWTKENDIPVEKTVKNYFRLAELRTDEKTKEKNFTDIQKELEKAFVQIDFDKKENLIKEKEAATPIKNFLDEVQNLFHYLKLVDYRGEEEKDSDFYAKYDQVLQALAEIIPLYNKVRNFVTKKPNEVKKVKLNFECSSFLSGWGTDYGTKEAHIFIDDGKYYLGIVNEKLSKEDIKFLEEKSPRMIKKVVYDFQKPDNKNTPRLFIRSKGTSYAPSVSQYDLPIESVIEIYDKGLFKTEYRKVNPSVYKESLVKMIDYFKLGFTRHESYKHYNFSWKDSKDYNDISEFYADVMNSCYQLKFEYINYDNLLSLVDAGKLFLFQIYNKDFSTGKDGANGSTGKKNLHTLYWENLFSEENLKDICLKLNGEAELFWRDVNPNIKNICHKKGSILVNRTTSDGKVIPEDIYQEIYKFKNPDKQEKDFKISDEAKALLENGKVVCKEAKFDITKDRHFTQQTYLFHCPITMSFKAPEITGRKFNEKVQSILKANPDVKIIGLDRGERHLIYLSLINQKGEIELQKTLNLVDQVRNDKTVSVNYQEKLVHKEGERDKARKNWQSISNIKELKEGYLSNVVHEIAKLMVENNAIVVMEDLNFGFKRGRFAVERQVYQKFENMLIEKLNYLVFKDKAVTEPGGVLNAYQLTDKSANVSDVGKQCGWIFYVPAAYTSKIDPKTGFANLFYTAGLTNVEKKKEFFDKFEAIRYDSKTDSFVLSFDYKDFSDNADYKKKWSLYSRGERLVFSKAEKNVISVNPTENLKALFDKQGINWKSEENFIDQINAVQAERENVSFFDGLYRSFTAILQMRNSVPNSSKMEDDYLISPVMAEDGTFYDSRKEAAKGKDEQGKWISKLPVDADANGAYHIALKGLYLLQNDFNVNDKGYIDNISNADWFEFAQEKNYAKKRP


What was measured:
Assay in all cases: cell_activity; PAM TTTV/TTTN; RNP in HEK293T
Settings in all cases: tags: NLS, His6
ID218 Cas12a = target: ID218 Cas12a
Experimental: (§1) To confirm the in vivo gene editing activity of the CRISPR enzymes according to Experimental Example 4.1, the following experiments were performed: [0474] 1) CRISPR/Cas12a complexes were assembled according to Experimental Example 1.5 using CRISPR enzymes prepared according to Experimental Example 4.1 and guide RNAs. [0475] 2) The CRISPR/Cas12a complexes assembled in 1) were transfected into HEK293T cells according to Experimental Example 1.8, and gene editing activity was measured.

ID233 Cas12a = target: T1, ID233 Cas12a
Experimental: as §1

ID236 Cas12a = target: T2, ID236 Cas12a
Experimental: as §1

Binder	activity (ID218 Cas12a) [% indel]	activity (ID233 Cas12a) [% indel]	activity (ID236 Cas12a) [% indel]
218 crRNA MTAP ; MTAP target (ssRNA ; dsDNA) RNA: UAAUUUCUACUAAGUGUAGAUGCCCCAAUAAUCCCCACAUGUCA DNA 1: GCCCCAATAATCCCCACATGTCA DNA 2: TGACATGTGGGGATTATTGGGGC	90.4	–	–
233 crRNA DYRK1A ; DYRK1A target (ssRNA ; dsDNA) RNA: AAAAUUUCUACUCUUGUAGAUGAAGCACAUCAAGGACAUUCUAA DNA 1: GAAGCACATCAAGGACATTCTAA DNA 2: TTAGAATGTCCTTGATGTGCTTC	–	12.2	–
236 crRNA DYRK1A ; DYRK1A target (ssRNA ; dsDNA) RNA: UAAAUUUCUACUGUUGUAGAUGAAGCACAUCAAGGACAUUCUAA DNA 1: GAAGCACATCAAGGACATTCTAA DNA 2: TTAGAATGTCCTTGATGTGCTTC	–	–	5.2
233 crRNA MTAP ; MTAP target (ssRNA ; dsDNA) RNA: AAAAUUUCUACUCUUGUAGAUGCCCCAAUAAUCCCCACAUGUCA DNA 1: GCCCCAATAATCCCCACATGTCA DNA 2: TGACATGTGGGGATTATTGGGGC	–	14.8	–
236 crRNA MTAP ; MTAP target (ssRNA ; dsDNA) RNA: UAAAUUUCUACUGUUGUAGAUGCCCCAAUAAUCCCCACAUGUCA DNA 1: GCCCCAATAATCCCCACATGTCA DNA 2: TGACATGTGGGGATTATTGGGGC	–	–	17
218 crRNA DYRK1A ; DYRK1A target (ssRNA ; dsDNA) RNA: UAAUUUCUACUAAGUGUAGAUGAAGCACAUCAAGGACAUUCUAA DNA 1: GAAGCACATCAAGGACATTCTAA DNA 2: TTAGAATGTCCTTGATGTGCTTC	71	–	–
